Results: US6723697B2, “IL-16 antagonists” (Research Corporation Technologies, Inc., priority 1999, dated 2004)
“Also recorded” adds a separate entry of the source. Blank lines part the entries; values can stand above or below the molecule they belong to.

Assays:
Format in all cases: cell-based
murine rIL-16 [1] = target: T1, murine rIL-16 (Mus musculus, UniProt O54824); assay: murine rIL-16-stimulated murine splenocyte migration, modified Boyden chamber; conditions: for IL-16-inhibitory activity (block of murine rIL-16-stimulated murine splenocyte migration): peptide concentration not given
T1 construct: polyhistidine fusion protein containing the 119 C-terminal residues encoded by the previously reported murine cDNA; polyhistidine (cleaved yes); made in house; host or cells: Escherichia coli strain HMS 174, vector pET16b
T1 sequence (O54824 1204-1322): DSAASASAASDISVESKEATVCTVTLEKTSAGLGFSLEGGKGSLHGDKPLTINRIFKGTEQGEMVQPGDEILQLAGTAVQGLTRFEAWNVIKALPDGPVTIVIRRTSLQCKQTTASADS
Experimental: (§1) Cell migration was assessed using a modified Boyden chamber. […] Cell migration is expressed as the mean % control migration.
(§2) Results from multiple experiments were analyzed using Student's t test for paired variables, and Tukey's test for multiple variables. A P value<0.05 was considered significant.
Peptide B (aa 341-352) includes the sequence WQCLLS (residues 344-349, SEQ ID NO:4) which is 100% conserved in all the species examined. Peptide A (aa 327-338) and peptide C (aa 351-362) correspond to the N-terminal and C-terminal flanks of peptide B, respectively. A random scrambled 12-residue peptide (LSKQKMVSREGT) designated peptide D (SEQ ID NO:20) was used a negative control for nonspecific effects of peptide administration on splenocyte motility. Criteria for the design of peptide D included overall hydrophilicity, neutral charge and no cysteine residues (to prevent possible dimer formation).
Murine spleens were harvested from healthy 8-week male BALB/c mice (Jackson Laboratory). Splenocytes were isolated by grinding spleens between fiysted slides in M199 culture medium (M. A. Bioproducts), supplemented with 0.4% bovine serum albumin, 22 mM HEPES buffer, 100 with U/ml of penicillin, 100 μg/ml streptomycin (M199-HPS). Cells were washed and erytbrocytes were lysed in Gey's solution. Splenocytes were washed twice in M199, and resuspended to a final concentration of 2×10^6 cells/ml in RPMI1640 medium (BioWhittaker) supplemented with 10% FBS, 100 U/ml of penicillin and 100 μg/ml of streptomycin. By flow cytometry, 25% of the isolated splenocytes within the lymphocyte-cloud were CD4^+.
Recombinant murine IL-16 was produced in Escherichia coli (strain HMS 174; Novagen) as a polyhistidine fusion protein containing the 119 C-terminal residues encoded by the previously reported murine cDNA (Keane et al., (1998) J. Immunol. 160: 5945-5954), using the bacterial expression vector pET16b (Novagen). The recombinant product corresponds to the secreted form of natural murine IL-16 following cleavage by caspase-3 (Zhang et al. (1998) J. Biol. Chem. 273:1144-1149). The rIL-16 was purified by metal chelation chromatography, and the polyhistidine tag was cleaved with factor Xa (New England Biolabs).

rIL-16 = target: T2, rIL-16 (Mus musculus, UniProt O54824); assay: IL-2R (CD25) induction on rIL-16-stimulated murine splenocytes, flow cytometry
T2 construct: polyhistidine fusion protein containing the 119 C-terminal residues encoded by the previously reported murine cDNA; polyhistidine (cleaved yes); made in house; host or cells: Escherichia coli strain HMS 174, vector pET16b
T2 sequence (O54824 1204-1322): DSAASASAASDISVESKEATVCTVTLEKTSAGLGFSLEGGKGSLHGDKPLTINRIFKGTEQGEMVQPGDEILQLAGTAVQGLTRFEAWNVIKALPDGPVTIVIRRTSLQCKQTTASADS
Experimental: Induction of IL-2R (CD25) on rIL-16-stimulated murine splenocytes was detected by staining with FITC-conjugated anti-mouse IL-2R Ab (PharMingen). Cells were fixed with 10% formalin and stored at 4° C. in the dark before analysis with a Becton Dickinson FACScan 440 flow cytometer. The % IL-2R^+ cells was determined by subtracting the % isotype control positive from the total % positive events.
Peptides A (SEQ ID NO:15) and C (SEQ ID NO:19) were inhibitory at 10^−7 M, but not 10^−6 M. The negative control peptide D (SEQ ID NO:20) (10^−6 M) had no effect on rIL-16-stimulated IL-2R expression.
Murine splenocytes were incubated in control buffer, rIL-16 alone, or rIL-16 plus the indicated peptide. IL-2R expression was determined by flow cytometry using FITC-conjugated anti-IL-2R antibody. The % IL-2R^+ was determined by subtracting the FITC-conjugated isotype control antibody binding from the FITC-conjugated anti-IL-2R antibody binding. Isotype control antibody binding ranged from 1% to 4%.

murine rIL-16 [2] = target: T1, murine rIL-16; assay: IL-16-stimulated T-lymphocyte migration, human CD4 D4 point mutants; conditions: human CD4 D4 wild type or point mutant, rIL-16 10^-9 M
Experimental: Point mutations at Leu 348 and Leu 349 in human CD4 were prepared as follows.
Initially 100 ng of wild type human CD4 cDNA (Richard Axel, Columbia University, N.Y.) contained within the mammalian expression vector pcDNA3.1(−) (Invitrogen, Carlsbad, Calif.) was subjected to the polymerase chain reaction (PCR) in the presence of 125 ng of each set of primer pairs. PCR conditions were as follows:
The time for the elongation step varied according to the relationship of 2 minutes per kilobase of plasmid DNA length. The product was then subjected to restriction digestion with the enzyme Dpn for 1 h. at 37° C. Dpn is specific for methylated nucleotides and therefore will only cut the original wide type CD4-plasmid DNA. The transformation reaction required the addition of 1 μl of the digest to 50 μl of Epicurean Blue Eschericia coli which was incubated on ice for 30 min. and finally heat shocked 42° C., 45 sec to seal the supercompent bacteria. The resultant bacteria culture was selected on ampicillin plates and sequenced to confirm mutagenesis.
as §1, §2
(FIGS. 10A and 10B). […] (FIGS. 11A and 11B).

Molecule: VSEEQK (OTHER INFORMATION: Description of Artificial Sequence:IL-16 antagonist peptide) [N-terminal half of peptide A]
synergy when combined with peptide B (murine rIL-16 [1]; concentration not given, data not shown): no synergy | IL-16-inhibitory activity (block of murine rIL-16-stimulated murine splenocyte migration) (murine rIL-16 [1]; rIL-16 10^-9 M): no inhibitory activity

Molecule: VKQVVA (OTHER INFORMATION: Description of Artificial Sequence:IL-16 antagonist peptide) [aa 334 V:K substituted]
reduction of IL-16-stimulated splenocyte migration in combination with peptide B (murine rIL-16 [1]; peptide 10^-6 M plus peptide B fixed 0.5×10^-8 M): reduced IL-16-stimulated splenocyte migration | reduction of IL-16-stimulated splenocyte migration in combination with peptide B (murine rIL-16 [1]; peptide 10^-7 M plus peptide B fixed 0.5×10^-8 M): reduced IL-16-stimulated splenocyte migration

Molecule: WQALLS (OTHER INFORMATION: Description of Artificial Sequence:IL-16 antagonist peptide) [aa 346 C:A substituted]
IL-16-inhibitory activity (block of murine rIL-16-stimulated murine splenocyte migration) (murine rIL-16 [1]; rIL-16 10^-9 M): equally as effective as the native WQCLLS

Molecule: VVQVVA (OTHER INFORMATION: Description of Artificial Sequence:IL-16 antagonist peptide) [aa 333-338 of mouse CD4 D4, C-terminal half of peptide A]
synergistic activity with peptide B (murine rIL-16 [1]; 6-residue peptide 10^-8 M combined with peptide B, data not shown): synergistic activity | inhibition of rIL-16-induced splenocyte migration (murine rIL-16 [1]; peptide 10^-6 M, rIL-16 10^-9 M): inhibited rIL16-induced splenocyte migration

Molecule: VAPETG (OTHER INFORMATION: Description of Artificial Sequence:IL-16 antagonist peptide) [aa 337-342, bridges peptide A and peptide B]
IL-16-inhibitory activity (block of murine rIL-16-stimulated murine splenocyte migration) (murine rIL-16 [1]; rIL-16 10^-9 M): failure; also recorded: lacked inhibitory activity

B1: NLTCEVWGPTSPKLMLSLKLENKEAKVSKREKAVWVLNPEAGMWQCLLSDSGQVLLESNIKVLPTWSTPVQPM (peptide)
chain: NLTCEVWGPTSPKLMLSLKLENKEAKVSKREKAVWVLNPEAGMWQCLLSDSGQVLLESNIKVLPTWSTPVQPM
modifications: OTHER INFORMATION: Description of Artificial Sequence:IL-16 antagonist peptide
notes: aa 302-374 of human CD4 D4
inhibition of IL-16-stimulated T-lymphocyte migration (murine rIL-16 [2]): IL-16-inhibitory activity

B2: NLTCEVWGPTSPKLMLSLKLENKEAKVSKREKAVWVLNPEAGMWQCSLSDSGQVLLESNIKVLPTWSTPVQPM (peptide)
chain: NLTCEVWGPTSPKLMLSLKLENKEAKVSKREKAVWVLNPEAGMWQCSLSDSGQVLLESNIKVLPTWSTPVQPM
modifications: OTHER INFORMATION: Description of Artificial Sequence:IL-16 antagonist peptide
notes: human CD4 D4 with leucine 348 to serine
inhibition of IL-16-stimulated T-lymphocyte migration (murine rIL-16 [2]): lost the ability to inhibit | inhibition of IL-16-stimulated T-lymphocyte migration (murine rIL-16 [2]; listed as human CD4 (L348→S)): complete loss in inhibition

B4: NLTCEVWGPTSPKLMLSLKLENKEAKVSKREKAVWVLNPEAGMWQCLSSDSGQVLLESNIKVLPTWSTPVQPM (peptide)
chain: NLTCEVWGPTSPKLMLSLKLENKEAKVSKREKAVWVLNPEAGMWQCLSSDSGQVLLESNIKVLPTWSTPVQPM
modifications: OTHER INFORMATION: Description of Artificial Sequence:IL-16 antagonist peptide
notes: human CD4 D4 with leucine 349 to serine
inhibition of IL-16-stimulated T-lymphocyte migration (murine rIL-16 [2]): lost the ability to inhibit | inhibition of IL-16-stimulated T-lymphocyte migration (murine rIL-16 [2]; listed as human CD4 (L349→S)): complete loss in inhibition

Second part, the molecule after the results:

% IL-2R+ CELLS (rIL-16; IL-16 + negative control peptide, 10^-6 M): 37% | inhibition of IL-16-stimulated induction of IL-2R (rIL-16; peptide 10^-6 M): no effect
Molecule: LSKQKMVSREGT (OTHER INFORMATION: Description of Artificial Sequence:IL-16 antagonist peptide) [peptide D, random scrambled 12-residue peptide used as negative control, reference compound]

inhibition of IL-16 (splenocyte migration) (murine rIL-16 [1]; peptide 10^-7 M, rIL-16 10^-9 M): inhibited IL-16
Molecule: WQCLLS (OTHER INFORMATION: Description of Artificial Sequence:IL-16 antagonist peptide) [aa 344-349 of mouse CD4 D4]

block of IL-16-stimulated splenocyte motility in combination with peptide B (murine rIL-16 [1]; peptide 0.5×10^-6 M to 0.5×10^-9 M (any concentration) plus peptide B fixed 0.5×10^-8 M): did not block IL-16
Molecule: VVQKVA (OTHER INFORMATION: Description of Artificial Sequence:IL-16 antagonist peptide) [aa 336 V:K substituted]

IL-16-inhibitory activity (block of murine rIL-16-stimulated murine splenocyte migration) (murine rIL-16 [1]; rIL-16 10^-9 M): failed to block IL-16
Molecule: WQCELS (OTHER INFORMATION: Description of Artificial Sequence:IL-16 antagonist peptide) [aa 347 L:E substituted]

IL-16-inhibitory activity (block of murine rIL-16-stimulated murine splenocyte migration) (murine rIL-16 [1]; rIL-16 10^-9 M): failed to block IL-16
Molecule: WACLLS (OTHER INFORMATION: Description of Artificial Sequence:IL-16 antagonist peptide) [aa 345 Q:A substituted]

inhibition of IL-16-stimulated T-lymphocyte migration (murine rIL-16 [2]): maintained partial ability to inhibit | inhibition of IL-16-stimulated T-lymphocyte migration (murine rIL-16 [2]; listed as Leucine 348 was conservatively substituted with Isoleucine): Partial inhibition
B3: … (peptide)
chain: NLTCEVWGPTSPKLMLSLKLENKEAKVSKREKAVWVLNPEAGMWQCILSDSGQVLLESNIKVLPTWSTPVQPM
modifications: OTHER INFORMATION: Description of Artificial Sequence:IL-16 antagonist peptide
notes: human CD4 D4 with Isoleucine substituted at position 348

% IL-2R+ CELLS (rIL-16; rIL-16 10^-9 M alone, no stimulation 24): 36% | increase of basal IL-2R expression (rIL-16; rIL-16 alone, murine splenocytes): 50%
B5: rIL-16: recombinant murine IL-16, 119 C-terminal residues, produced in Escherichia coli (protein)
chain: DSAASASAASDISVESKEATVCTVTLEKTSAGLGFSLEGGKGSLHGDKPLTINRIFKGTEQGEMVQPGDEILQLAGTAVQGLTRFEAWNVIKALPDGPVTIVIRRTSLQCKQTTASADS
